From article PMC4070425 come the findings set out here.

In experiment [1] the target is JR-CSF Env N611D (variant pseudovirus) (HIV-1 isolate JR-CSF).
The target of experiment [2] is JR-CSF Env T639A (variant pseudovirus) (HIV-1 isolate JR-CSF).
Experiment [3] concerns the target LAI Env wild type (virus) (HIV-1 strain LAI) (UniProt P03377).
The target of experiment [4] is LAI Env E647G (variant virus) (HIV-1 strain LAI).
In experiment [5] the target is JR-FL Env N611D (variant pseudovirus) (HIV-1 isolate JR-FL).
Experiment [6] has as its target LAI Env N611A (variant virus) (HIV-1 strain LAI).
Experiment [7] concerns the target LAI Env N637K (variant virus) (HIV-1 strain LAI).
Experiment [8] has as its target LAI Env N637A (variant virus) (HIV-1 strain LAI).
The target in experiment [9] is JR-CSF Env N637K (variant pseudovirus) (HIV-1 isolate JR-CSF).
For experiment [10], the target named is JR-CSF Env wild type (pseudovirus) (HIV-1 isolate JR-CSF) (UniProt P20871).
In experiment [11] the target is JR-CSF Env N637A (variant pseudovirus) (HIV-1 isolate JR-CSF).
Experiment [12] concerns the target LAI Env A501T (variant virus) (HIV-1 strain LAI).
Experiment [13] concerns the target JR-FL Env N611A (variant pseudovirus) (HIV-1 isolate JR-FL).
For experiment [14], the target named is JR-FL Env E647G (variant pseudovirus) (HIV-1 isolate JR-FL).
Experiment [15] has as its target JR-CSF Env S613A (variant pseudovirus) (HIV-1 isolate JR-CSF).
For experiment [16], the target named is LAI Env N611D (variant virus) (HIV-1 strain LAI).
The target in experiment [17] is JR-FL Env N637K (variant pseudovirus) (HIV-1 isolate JR-FL).
Experiment [18] concerns the target JR-CSF Env N611A (variant pseudovirus) (HIV-1 isolate JR-CSF).
The target of experiment [19] is JR-CSF Env E647A (variant pseudovirus) (HIV-1 isolate JR-CSF).
Experiment [20] has as its target LAI Env E647A (variant virus) (HIV-1 strain LAI).
The target of experiment [21] is JR-CSF Env E647G (variant pseudovirus) (HIV-1 isolate JR-CSF).
For experiment [22], the target named is JR-FL Env N637A (variant pseudovirus) (HIV-1 isolate JR-FL).
Experiment [23] addresses JR-FL Env E647A (variant pseudovirus) (HIV-1 isolate JR-FL).

Chain of UniProt P20871 (P20871 32-848): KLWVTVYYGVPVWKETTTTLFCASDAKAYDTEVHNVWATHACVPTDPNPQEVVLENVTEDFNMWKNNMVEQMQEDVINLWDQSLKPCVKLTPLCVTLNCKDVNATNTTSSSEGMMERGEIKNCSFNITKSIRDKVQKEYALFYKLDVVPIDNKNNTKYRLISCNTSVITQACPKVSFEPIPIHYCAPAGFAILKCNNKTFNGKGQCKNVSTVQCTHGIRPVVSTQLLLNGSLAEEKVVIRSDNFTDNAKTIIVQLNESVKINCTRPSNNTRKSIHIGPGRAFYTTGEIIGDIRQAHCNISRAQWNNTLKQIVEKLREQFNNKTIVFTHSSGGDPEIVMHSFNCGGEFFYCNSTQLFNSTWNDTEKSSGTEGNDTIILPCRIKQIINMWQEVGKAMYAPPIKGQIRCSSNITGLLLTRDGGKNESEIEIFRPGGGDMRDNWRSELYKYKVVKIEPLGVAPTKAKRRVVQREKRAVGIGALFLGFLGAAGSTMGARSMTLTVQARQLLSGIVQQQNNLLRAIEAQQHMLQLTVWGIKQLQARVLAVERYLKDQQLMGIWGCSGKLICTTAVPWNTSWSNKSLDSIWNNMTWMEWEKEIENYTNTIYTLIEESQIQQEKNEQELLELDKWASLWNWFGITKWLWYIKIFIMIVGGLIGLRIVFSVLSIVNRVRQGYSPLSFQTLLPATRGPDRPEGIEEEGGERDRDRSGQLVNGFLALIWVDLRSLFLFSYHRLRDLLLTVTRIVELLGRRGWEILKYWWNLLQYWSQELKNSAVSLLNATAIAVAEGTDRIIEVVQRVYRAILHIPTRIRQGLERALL

Consider PGT151 (antibody), for which the %Maximum neutralization (JR-CSF) worked out at 0% in [1]; 52% in [2]; 20% in experiment [9]; 93% in experiment [10]; 50% in experiment [11]; 41% in [15]. For the same substance, the %Maximum neutralization (JR-CSF) in experiment [18] came to 44%; in [19], 33%; in experiment [21], 7%. Besides, the %Maximum neutralization (LAI) in [3] came to 100%; in experiment [4], 95%; in experiment [6], 81%; in experiment [7], 37%; in experiment [8], 70%; in [12] it was 75%. Besides, the figures for the %Maximum neutralization (LAI) in experiment [16] and in [20] were 45% and 96%, respectively. The %Maximum neutralization (JR-FL) in experiment [5] is 8%; in experiment [13] it was 31%; in experiment [14], 94%; in experiment [17], 33%; in experiment [22], 65%; in experiment [23] it was 72%.
